The record followed here is article PMC3003327 (The Journal of Cell Biology, 2010).

The data set concerns the molecule itself. In words: AUC.

The stoichiometry N is the number of molecules, sites or subunits per partner or assembly.

B1: human VASP^1-380aa, unlabeled wild type (untagged hVASP^1-380aa) (natural protein)
chain: GSMSETVICSSRATVMLYDDGNKRWLPAGTGPQAFSRVQIYHNPTANSFRVVGRKMQPDQQVVINCAIVRGVKYNQATPNFHQWRDARQVWGLNFGSKEDAAQFAAGMASALEALEGGGPPPPPALPTWSVPNGPSPEEVEQQKRQQPGPSEHIERRVSNAGGPPAPPAGGPPPPPGPPPPPGPPPPPGLPPSGVPAAAHGAGGGPPPAPPLPAAQGPGGGGAGAPGLAAAIAGAKLRKVSKQEEASGGPTAPKAESGRSGGGGLMEEMNAMLARRRKATQVGEKTPKDESANQEEPEARVPAQSESVRRPWEKNSTTLPRMKSSSSVTTSETQPCTPSSSDYSDLQRVKQELLEEVKKELQKVKEEIIEAFVQELRKRGSP
For the protein B1, the “stoichiometry N” value stood at 4.
